Assay results as given in paper PMC10821591.

Molecular target: GAP domain of human Ral GTPase Accelerating Protein α1 (residues 1807-1988) (human) (UniProt Q6GYQ0)
Assay: ITC; MicroCal iTC200, 20 °C; cell: RalGAPα1(GAP) 15 μM; syringe: MAF1 150 μM, 19 injections of 2 μl; 20 mM Hepes pH 7.5, 150 mM NaCl, 1 mM TCEP; one-site model

Sequence of GAP domain of human Ral GTPase Accelerating Protein α1 (residues 1807-1988) (human) (Q6GYQ0 1807-1988): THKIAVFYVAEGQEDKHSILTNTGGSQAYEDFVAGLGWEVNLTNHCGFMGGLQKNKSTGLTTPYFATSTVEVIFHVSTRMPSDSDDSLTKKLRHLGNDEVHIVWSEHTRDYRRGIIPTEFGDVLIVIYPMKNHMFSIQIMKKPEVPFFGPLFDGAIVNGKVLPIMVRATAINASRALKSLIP

| Substance | Kd | dH | stoichiometry N |
| --- | --- | --- | --- |
| MAF1b STL-RKK (MAF1b 173-443, S438R/T439K/L441K) (domain or fragment) | 518 nM | – | – |
| T. gondii Mitochondrial Association Factor 1b, structured C-terminal domain (residues 173-443) (domain or fragment) | 334 nM | -14.6 kcal/mol | 1 |
